Several values for one entry are separate records, joined by “and”; a condition that tells them apart may be missing. Equal entries are not always repeated.
System: Bacillus subtilis DB104 (SP-AmyQ fusion secretion)
Test: AmyQ secretion efficiency, weighted average sort bin (1 = best secretion, 10 = worst) (bin number (weighted average, 1-10)); higher = lower secretion efficiency
How it was run: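 B. subtilis DB104 library expressing mature AmyQ fused to designed signal peptides (amyE-integrated) was encapsulated at about 0.3 cells per ~65 nL alginate bead with fluorescein-starch, grown about 13 h at room temperature and nile red stained. Occupied beads were sorted by large-particle flow cytometry into 10 equally populated bins by green/red fluorescence ratio, and each bin's amplicons were Illumina-sequenced. Secretion score is the read-frequency-weighted average bin number, normalised to beads per bin, excluding low-abundance sequences.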

Sequence | AmyQ secretion efficiency
MRKFLKSNFRFLLAAALGISLLASSNFIKASND | 4.13
MKLKKRVSMFLVALTMCGGLFVTPAKAEEE | 2.9
MKKRITYSFTMMLLALLAVVAFAFTDSSKAKAAEA | 1.93
MFKKGYSSYRKRTFSLSLVLPLDGHAKAQEV | 7.96
MKKAFLVFLSVVLVTTVFLFVKQQESVAQAKQL | 2.31
MKKKQVMLALTAAAGLGLTALHSAPAAKGAPL | 3.51
MKRTRIPMYLALGAALTIAPLSFASAEEN | 3.6
MKNMSCKLVVSVTLFFSFLTIGPLYHAQNS | 5.32
MKVLLSALLLLLFAFEPSESGKKL | 6.5
MAIIIAIIAAVIVIAALITFNVINASPG | 9.99
MRPKRPRKLILSAVLFLSCFFGARQTEASASKR | 4.56
MRPVFPLILSAVLFLSCFFGARQTEASKSKR | 2.19
MRSKKLWISLLFALFTMAFSNMSAQAAGK | 2.16
MNKPTKLFSTLALAAGMTAAAAGGAGTVHAQQP | 2.25
MKKKQVMLALTAAAGLGLTALHSAPAPKAAPL | 6.78
MKRLFMKSMASLVLFAVVFVFAVKGAPAKAETH | 2
MGLGKKLSVAVAASFMSLSISLPGVQAEDD | 4.28
MKKRKRRNFKRFIAAFLVLALMISLVPADVLGKST | 3.14
MRKWYQYQGAGVLTSVILAFVYDKTKANEE | 8.25
MLYLKRVLLLLVTGLFMSLFAVTATASAQTG | 1.49
MTLTSGFLLLSCLALSTVFVATTIANAPTH | 5.02
MGTTIVAGLAVSAVVGSSMAAAPAEAKTI | 6.13
MKKSQYFIVFICFFVLFSVHPIARAAADS | 3.28
MKKAAAVLLSLGLVFGFSYGAGHVKEAKTK | 6.72
MRRKKKRVLTMCFLGLILFVPTALADNS | 3.09
MKRLLSTLLIGIMLLTFAPSMFAKQD | 2.35

Sequence | AmyQ secretion efficiency
MNLRKILLSSALSLGMLVSAAPQLATSS | 4.11
MLKKKWMVGLLAGCLAAGGFSYNAFADEE | 6.94
MGSTWSLIVCLTALLSVLLVAGSVPFHAEAKKP | 4.11
MFNRLFRVCFLAALIMAFTLPNSHYAQKP | 6.53
MKKTLAAGIIGLLTVSIASPSFAAEK | 2.62
MKRNIFNNINLSLLSTLLIGIMLLTFAPSAFAKQD | 2
MRKILLSSALSLGMLVSAAPVLATSS | 1.66
MRFTKVVGFLSVLGLAAVFPLTSQAEKA | 4.09
MKKRLIGFLVLVPALIMSGITLIEANKK | 5.85 and 6.63 and 6.16
MIVIRKRKISIIVFLSVIQPQPS | 5.82
MKKVLMAFIICLSLILSVLAAPPSGCKAESV | 1.89
MPYLKRVLLLLVTGLFMSLFAVTATASIQTG | 1.67
MKLAKRVSALTPSTTLAITAKPKEL | 6.44
MKKWMITIAMLILAGIALFVFISPYKSHKT | 6.74
MKNMSCKLVVSVTLFFSFLTIGPLAHNQNS | 5.52
MKIRKLIFNMFLILLSSALSFGMLISAVPALAAGT | 3.62
MKKVLMAFIICLSLILTLTSVIFISVLAAPPSGAKAESV | 2.47
MKKIMSGKKGMVLLTIFCFSPQASAAYD | 5.2
MKSCKQLIVCSLAAILLLIPSVSFAKRK | 2.42
MKKLLAAGIIGLLTVSIASPSFSAEK | 3.02
MKKKQVMLALTAAAGLGLTALHSAPAAKEAPL | 6.66
MFLKLLLATSALTFSLSLVLPLDGHAKAQEV | 2.93
MPYLKRVLLLLVTGLFMSLFAVTATASKQTG | 1.26
MKRLCRKKRKKSLFLVLLPGKALGAVD | 7.45
MKKRKRRFLLVSFVLFFALSTGITGVQAAPA | 2.95
MKKIWIGMLAAAVLLLITISVTAAMVPKVSLADAA | 5

Sequence | AmyQ secretion efficiency
MKKKQVMLALTAAAGLGLTALHSAPAIKAAPL | 4.18
MKRILFLLSTLLIGIMLLTFAPSAFAKQD | 1.83
MKKKQVMLALTAAAGLGLTAHSAPAAKAAPL | 2.01
MKKKQVMLALTAAAGLGLTALHSAPARKAAPL | 5.26
MFKKHTISLLIIFLLASAVLAKPMEAHTV | 2.67
MKRIRIPMTLALGAALTIAPLSFPATVPGAGGTTASAEEN | 4.38
MTKVMLATALFLGLTPAGANAADL | 5.8
MRKKLKWLSTGTGGTYTQFLFKYQFSNNDS | 7.11
MKSKGSIMACLILFSFTITTFINTETMSAFSN | 5.38
MKSKWMSGLLLVAVGFSFTQVMEHAGET | 7.11
MLTKRLLTIYIMLLGLIFVILSALSAAWFPGAAQAEEK | 4.31
MKKAKRKRRKAAVGLFTFGGVQQASAKEL | 8.05
MRPVFPTSQKKYLFLSCFFGARQTEASASKR | 7.29
MKLKKRVSMFLVALTMCGGLFVTVIIVAKAVKT | 6.35
MAIIIAIIAAVIVIAALITFNVGTPRNASPG | 8.5
MHLIRAAGAVCLAVVLIAGCRFNEDQHQAELENT | 6.53
MRSYIKVLTMCFLGLILFVFTALADNS | 7.29
MKKTIMSFVAVAALSTTAFVLSSFGAHASAKEI | 3.42
MFKFKKNFLVGLSAALMSIKKKKRRASAAST | 7.19
MKRIRIPMTLALGAALTIAPLSFASCEEN | 4.65
MKVPKTMLLSTAAGLLLSLTATSESAHYV | 6.28
MFNRLFRVCFLAALIMAFTLPNSLYAQKP | 2.72
MSGSRVITCVMAASLTLGSLLPAGYASAKED | 3.72
MKKKQVMLALTAAAGLGLTALHSAPAAKIAPL | 6.05
MTKKRRRAWFLPLVCVLLISGWLAPAASASAQTT | 2.33
MKKAAAVLLSLGLVFGFSYGAGHVAEAATD | 3.51

Sequence | AmyQ secretion efficiency
MKRIRIPMTLALSAALIIALLSFASAEEN | 5.6
MTKKAWFLPLVCVLLISGWLAPAASVSAQTT | 2.17
MVKKWLRRRRVMLSVLSTFTYSASAVGV | 6.88
MFMQIITATTAVVLGSTLFAGAASAQSI | 3.83
MNFKKTVVSALSISALALSVSGVASAHTI | 3.63
MRKAVFVIMISFLIATVNVNTAHAAID | 3.36
MSKVLMAFIICLSLILSVLAAPPSGAKAESV | 2.82
MKKAFILSAAAAVGLFTFGGVQQLSAKEL | 3.38
MRGKSAVLLSLIMLIAGFLISFSFQK | 9.36
MRPVFPLILSAVLFLSCFFAATVFFASASKR | 7
MRNLTKTSLLLAGLCTAAQMVFVTHISAEES | 3.9
MIAYFGKCLLLVTIMFLGVLGMQQANHG | 5.4
MKRMIVRMTLPLLIVCLAFSSFSASARAEEE | 3.68
MRRRTDYKKQVVGILLSLAFVLFVFSFSERHE | 6.74
MKRIRIPMTLALGAALTIAPLSFASQEEN | 7.06
MKKRFFGPIILAFILFAGLIAIPS | 5.16
MLKKKWMVGLLAGCLAAGGFSYNSFATEN | 5.59
MKRKQQKSLAISALSLGLLVSAPTASFAAES | 3.07
MKKKLAAGLTASAIVGTTLVVVFAEAATI | 6.57
MKSKGSIMACLILFSFTITTFINTETWSAFSN | 7.56
MKRKKKRLCVMMLLFSAIASFPVSAQAKDQ | 3.18
MTKKAWFLPLVCVLLISGWLAPAASASMQTT | 2.07
MLTKRGRYYYRTLLGLIAWFPGAAQAEEK | 9.36
MFKKHTISLLIIFLLASAVLAKPSEAHTV | 2.57
MKKAFLVFLSVVLVTTVFLVVSFESVAQAKQL | 2.33
MKKLLAAGIIGLLTVSIASPSFVAEK | 6.79

Sequence | AmyQ secretion efficiency
MFNRLFRVCFLAALIMAFTLPNSVYAKKR | 3.37
MRSYIKVLTMCFLGLILFVPTALAAND | 2.11
MKNMSCKLVVSVTLFFSFLTIGPLAHAQND | 1.22
MKRTWNVCLTALLSVLLVAGSVPFHMEAKKP | 2.19
MKVLLSALLLLLFAFEPSCSGKKL | 5.53
MKKLVLCVSILAVILKRKRKKALTQLS | 6.12
MTMLRKIIGWILLLCIIATPLFAFTVIASGKEV | 5.08
MKRLLVSLRVWMVFLMNWVTPDRKTAAGAVY | 7.15
MTMLRKIIGWILLLCIIPLFAFTVIMSGKEV | 7.42
MSRIRIPMTLALGAALTIAPLSFASAEEN | 3.2
MKNMSCKLVVSVTLFFSFLTIGPLAHAQNR | 1.47
MTMKLKWLSFLLGFIILLFLFKYQFSNNDS | 7.21
MFNRLFRVCFLAALIMAFTLPNSIYAQKP | 2.87
MRFTKVVGFLSVLGLAAVFPLTAQAEED | 1.95
MKRLLSTLLIGIMLLTFAPSVFAKQD | 1.93
MKSKGSIMACLILFSFTITTFINTETFSAFSN | 7.43
MKKRKRKTLVVLFTIVTFGLVSPPAALMADKP | 2.34
MTKKAWFLPLVCVLLISGWLAPAASMSAQTT | 3.47
MRKTIFAFLTGLMMFGTITAASASPF | 4.61
MKRTWNVCLTALLSVLLVAGSVKRKKHAEAKKP | 7.43
MVKKWLIQFAVMLSVLSKKRRKKASAVGV | 7.67
MRSYIKVLTMCFLGLILFVPTSLADNS | 2.69

From the supplement of paper PMC9942255
